Article PMC3496059 (Structure (London, England : 1993), 2012)

Target: NSUN4 (residues 26–384) (human, UniProt Q96CB9 26-384)
Assay: ITC

Chain of NSUN4 (residues 26–384) (Q96CB9 26-384): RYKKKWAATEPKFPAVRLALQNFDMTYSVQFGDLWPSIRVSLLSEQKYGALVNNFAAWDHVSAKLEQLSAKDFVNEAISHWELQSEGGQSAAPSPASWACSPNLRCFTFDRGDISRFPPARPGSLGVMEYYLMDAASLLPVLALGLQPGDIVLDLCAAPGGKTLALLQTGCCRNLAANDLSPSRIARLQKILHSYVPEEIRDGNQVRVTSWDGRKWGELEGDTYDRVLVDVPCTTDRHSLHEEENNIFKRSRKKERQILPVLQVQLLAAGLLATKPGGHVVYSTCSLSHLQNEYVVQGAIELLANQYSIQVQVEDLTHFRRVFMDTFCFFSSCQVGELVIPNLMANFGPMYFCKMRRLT

Kd: 0.0133 ± 0.0004 µM
dH: -46.2 ± 0.92 kJ/mol
stoichiometry N: 1.08 ± 0.02
B1: MTERF4 (residues 66–332) (domain or fragment, human, UniProt Q7Z6M4 66-332, looked up)
chain: EPECRRNLVQCLLEKQGTPVVQGSLELERVMSSLLDMGFSNAHINELLSVRRGASLQQLLDIISEFILLGLNPEPVCVVLKKSPQLLKLPIMQMRKRSSYLQKLGLGEGKLKRVLYCCPEIFTMRQQDINDTVRLLKEKCLFTVQQVTKILHSCPSVLREDLGQLEYKFQYAYFRMGIKHPDIVKSEYLQYSLTKIKQRHIYLERLGRYQTPDKKGQTQIPNPLLKDILRVSEAEFLARTACTSVEEFQVFKKLLAREEEESESSTS
